Values quoted from earlier work, collected in paper PMC6478124.

Target: HDM2 (Homo sapiens) (UniProt Q00987)
Sequence (Q00987 whole entry): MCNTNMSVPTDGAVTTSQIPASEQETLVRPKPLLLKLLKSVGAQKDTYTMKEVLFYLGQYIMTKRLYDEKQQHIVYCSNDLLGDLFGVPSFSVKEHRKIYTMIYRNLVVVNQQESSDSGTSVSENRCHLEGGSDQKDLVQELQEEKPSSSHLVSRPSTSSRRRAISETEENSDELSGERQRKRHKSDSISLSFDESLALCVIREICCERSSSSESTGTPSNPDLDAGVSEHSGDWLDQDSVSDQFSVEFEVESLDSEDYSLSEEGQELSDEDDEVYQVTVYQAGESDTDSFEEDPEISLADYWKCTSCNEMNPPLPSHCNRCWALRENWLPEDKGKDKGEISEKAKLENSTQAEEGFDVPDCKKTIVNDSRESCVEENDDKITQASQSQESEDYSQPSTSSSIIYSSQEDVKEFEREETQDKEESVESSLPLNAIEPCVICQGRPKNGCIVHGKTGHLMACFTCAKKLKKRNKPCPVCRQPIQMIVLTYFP

stapled p53 transactivation domain peptide transactivation domain α-helix (from UniProt P04637)
Kd: 6.76 nM
